In publication PMC2756588:

T1: Abp1, P15891
T1 sequence (P15891 535-592, looked up): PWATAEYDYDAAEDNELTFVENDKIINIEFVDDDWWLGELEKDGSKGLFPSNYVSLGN

T2: Bbc1, P47068
T2 sequence (P47068 1-78, looked up): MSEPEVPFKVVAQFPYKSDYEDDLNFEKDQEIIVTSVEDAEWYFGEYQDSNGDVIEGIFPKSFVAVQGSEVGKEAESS

T3: Boi1, P38041
T3 sequence (P38041 1-86, looked up): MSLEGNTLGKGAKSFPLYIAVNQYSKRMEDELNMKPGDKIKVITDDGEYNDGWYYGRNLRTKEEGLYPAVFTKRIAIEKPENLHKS

T4: Boi2, P39969
T4 sequence (P39969 32-116, looked up): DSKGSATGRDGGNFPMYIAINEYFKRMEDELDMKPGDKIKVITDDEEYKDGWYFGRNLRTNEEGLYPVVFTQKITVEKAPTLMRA

T5: Bud14, P27637
T5 sequence (P27637 247-328, looked up): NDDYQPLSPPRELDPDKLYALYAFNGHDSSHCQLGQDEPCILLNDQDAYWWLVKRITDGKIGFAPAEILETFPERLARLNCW

T6: Bzz1-1, P38822
T6 sequence (P38822 478-572, looked up): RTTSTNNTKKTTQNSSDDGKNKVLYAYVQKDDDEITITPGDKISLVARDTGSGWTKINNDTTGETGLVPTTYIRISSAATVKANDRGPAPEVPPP

T7: Bzz1-2, P38822
T7 sequence (P38822 568-633, looked up): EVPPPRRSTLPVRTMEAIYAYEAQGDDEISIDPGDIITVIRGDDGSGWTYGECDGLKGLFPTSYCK

T8: Cdc25, P04821
T8 sequence (P04821 50-136, looked up): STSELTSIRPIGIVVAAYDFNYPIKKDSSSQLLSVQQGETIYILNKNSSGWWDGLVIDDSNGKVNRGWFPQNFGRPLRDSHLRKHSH

T9: Cyk3, Q07533
T9 sequence (Q07533 1-83, looked up): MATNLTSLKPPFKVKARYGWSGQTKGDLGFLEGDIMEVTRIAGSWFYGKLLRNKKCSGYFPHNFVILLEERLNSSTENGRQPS

T10: Fus1, P11710
T10 sequence (P11710 432-512, looked up): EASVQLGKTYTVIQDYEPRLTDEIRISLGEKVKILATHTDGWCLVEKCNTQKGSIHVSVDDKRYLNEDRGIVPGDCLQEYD

T11: Hof1, Q05080
T11 sequence (Q05080 590-669, looked up): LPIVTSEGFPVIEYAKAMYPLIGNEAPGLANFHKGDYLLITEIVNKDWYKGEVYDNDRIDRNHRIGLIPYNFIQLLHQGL

T12: Hse1, P38753
T12 sequence (P38753 208-285, looked up): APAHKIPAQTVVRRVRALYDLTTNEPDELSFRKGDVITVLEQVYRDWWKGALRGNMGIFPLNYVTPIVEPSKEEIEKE

T13: Lsb1, P53281
T13 sequence (P53281 45-122, looked up): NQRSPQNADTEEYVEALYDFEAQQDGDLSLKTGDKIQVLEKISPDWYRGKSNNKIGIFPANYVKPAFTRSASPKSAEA

T14: Lsb3, P43603
T14 sequence (P43603 385-451, looked up): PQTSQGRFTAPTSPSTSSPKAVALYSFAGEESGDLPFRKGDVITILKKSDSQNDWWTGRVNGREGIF

T15: Lsb4, P32793
T15 sequence (P32793 402-468, looked up): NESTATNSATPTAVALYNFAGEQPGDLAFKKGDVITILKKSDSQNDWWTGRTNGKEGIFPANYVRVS

T16: Myo5, Q04439
T16 sequence (Q04439 1072-1160, looked up): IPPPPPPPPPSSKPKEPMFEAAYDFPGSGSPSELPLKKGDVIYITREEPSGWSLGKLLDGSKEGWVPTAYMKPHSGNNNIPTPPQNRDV

T17: Nbp2, Q12163
T17 sequence (Q12163 103-180, looked up): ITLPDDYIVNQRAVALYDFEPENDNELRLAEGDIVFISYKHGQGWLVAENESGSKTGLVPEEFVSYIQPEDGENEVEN

T18: Pex13, P80667
T18 sequence (P80667 295-386, looked up): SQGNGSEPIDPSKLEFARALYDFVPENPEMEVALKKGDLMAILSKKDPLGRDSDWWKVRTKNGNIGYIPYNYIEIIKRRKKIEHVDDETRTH

T19: Pin3, Q06449
T19 sequence (Q06449 53-122, looked up): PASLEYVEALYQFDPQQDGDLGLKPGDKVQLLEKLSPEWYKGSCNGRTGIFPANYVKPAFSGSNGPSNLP

T20: Sla1-2, P32790
T20 sequence (P32790 60-140, looked up): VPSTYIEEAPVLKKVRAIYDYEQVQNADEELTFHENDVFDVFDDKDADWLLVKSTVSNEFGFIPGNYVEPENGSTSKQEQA

T21: Sla1-3, P32790
T21 sequence (P32790 344-424, looked up): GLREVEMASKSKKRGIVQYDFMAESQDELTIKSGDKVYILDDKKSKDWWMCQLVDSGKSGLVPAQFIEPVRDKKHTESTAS


Assays:
Experiment in all cases: SPOT array
Abp1, P15891 = molecular target: T1, Abp1, P15891; settings: median of control spots 935
Bbc1, P47068 = molecular target: T2, Bbc1, P47068; settings: median of control spots 796
Bem1-1, P29366 = settings: median of control spots 4282
Sequence of Bem1-1, P29366 (P29366 55-141): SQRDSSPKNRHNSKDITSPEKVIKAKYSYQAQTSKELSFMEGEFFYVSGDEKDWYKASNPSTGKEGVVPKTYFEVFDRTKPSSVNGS

Bem1-2, P29366 = settings: median of control spots 4347
Sequence of Bem1-2, P29366 (P29366 139-227): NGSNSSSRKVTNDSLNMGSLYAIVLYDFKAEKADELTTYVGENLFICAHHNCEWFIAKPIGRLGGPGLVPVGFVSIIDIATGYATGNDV

Boi1, P38041 = molecular target: T3, Boi1, P38041; settings: median of control spots 1162
Boi2, P39969 = molecular target: T4, Boi2, P39969; settings: median of control spots 1161
Bud14, P27637 = molecular target: T5, Bud14, P27637; settings: median of control spots 956
Bzz1-1, P38822 = molecular target: T6, Bzz1-1, P38822; settings: median of control spots 4446
Bzz1-2, P38822 = molecular target: T7, Bzz1-2, P38822; settings: median of control spots 4538
Cdc25, P04821 = molecular target: T8, Cdc25, P04821; settings: median of control spots 969
Cyk3, Q07533 = molecular target: T9, Cyk3, Q07533; settings: median of control spots 1451
Fus1, P11710 = molecular target: T10, Fus1, P11710; settings: median of control spots 1200
GST = settings: median of control spots 978
Hof1, Q05080 = molecular target: T11, Hof1, Q05080; settings: median of control spots 4086
Hse1, P38753 = molecular target: T12, Hse1, P38753; settings: median of control spots 1727
Lsb1, P53281 = molecular target: T13, Lsb1, P53281; settings: median of control spots 388
Lsb3, P43603 = molecular target: T14, Lsb3, P43603; settings: median of control spots 406
Lsb4, P32793 = molecular target: T15, Lsb4, P32793; settings: median of control spots 397
Myo3, P36006 = settings: median of control spots 468
Myo5, Q04439 = molecular target: T16, Myo5, Q04439; settings: median of control spots 471
Nbp2, Q12163 = molecular target: T17, Nbp2, Q12163; settings: median of control spots 357
Pex13, P80667 = molecular target: T18, Pex13, P80667; settings: median of control spots 1341
Pin3, Q06449 = molecular target: T19, Pin3, Q06449; settings: median of control spots 2171
Rvs167, P39743 = settings: median of control spots 2707
Sequence of Rvs167, P39743 (P39743 419-482): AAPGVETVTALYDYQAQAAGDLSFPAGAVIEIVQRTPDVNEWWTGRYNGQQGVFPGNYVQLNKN

Sho1, P40073 = settings: median of control spots 1148
Sequence of Sho1, P40073 (P40073 287-367): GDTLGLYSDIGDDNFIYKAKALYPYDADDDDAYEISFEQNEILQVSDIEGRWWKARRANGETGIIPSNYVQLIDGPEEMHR

Sla1-2, P32790 = molecular target: T20, Sla1-2, P32790; settings: median of control spots 712
Sla1-3, P32790 = molecular target: T21, Sla1-3, P32790; settings: median of control spots 5475

Binder	SPOT intensity (Abp1, P15891)	SPOT intensity (Bbc1, P47068)	SPOT intensity (Bem1-1, P29366)	SPOT intensity (Bem1-2, P29366)	SPOT intensity (Boi1, P38041)	SPOT intensity (Boi2, P39969)	SPOT intensity (Bud14, P27637)	SPOT intensity (Bzz1-1, P38822)	SPOT intensity (Bzz1-2, P38822)	SPOT intensity (Cdc25, P04821)	SPOT intensity (Cyk3, Q07533)	SPOT intensity (Fus1, P11710)	SPOT intensity (GST)	SPOT intensity (Hof1, Q05080)	SPOT intensity (Hse1, P38753)	SPOT intensity (Lsb1, P53281)	SPOT intensity (Lsb3, P43603)	SPOT intensity (Lsb4, P32793)	SPOT intensity (Myo3, P36006)	SPOT intensity (Myo5, Q04439)	also measured
VPVAPPPPPASLGQS	0	0	4	1	0	0	0	8	0	0	0	0	0	0	0	0	0	0	0	1	SPOT intensity (Nbp2, Q12163): 0; SPOT intensity (Pex13, P80667): 0; SPOT intensity (Pin3, Q06449): 0; SPOT intensity (Rvs167, P39743): 0; SPOT intensity (Sho1, P40073): 0; SPOT intensity (Sla1-2, P32790): 0; SPOT intensity (Sla1-3, P32790): 0
ATNVPVAPPPPPASL	0	0	4	0	0	0	0	1	3	0	0	0	0	0	0	0	0	0	0	0	SPOT intensity (Nbp2, Q12163): 0; SPOT intensity (Pex13, P80667): 0; SPOT intensity (Pin3, Q06449): 0; SPOT intensity (Rvs167, P39743): 0; SPOT intensity (Sho1, P40073): 0; SPOT intensity (Sla1-2, P32790): 0; SPOT intensity (Sla1-3, P32790): 0
NIKVLLNPKLGKPVK	93	111	2	3	5	0	27	2	6	96	5	2	0	13	20	1	0	1	6	0	SPOT intensity (Nbp2, Q12163): 2; SPOT intensity (Pex13, P80667): 6; SPOT intensity (Pin3, Q06449): 2; SPOT intensity (Rvs167, P39743): 0; SPOT intensity (Sho1, P40073): 63; SPOT intensity (Sla1-2, P32790): 0; SPOT intensity (Sla1-3, P32790): 8
NVLRKILEIPLHSFS	7	62	2	0	6	0	31	0	5	105	1	35	0	0	5	0	0	0	0	0	SPOT intensity (Nbp2, Q12163): 0; SPOT intensity (Pex13, P80667): 0; SPOT intensity (Pin3, Q06449): 0; SPOT intensity (Rvs167, P39743): 0; SPOT intensity (Sho1, P40073): 6; SPOT intensity (Sla1-2, P32790): 0; SPOT intensity (Sla1-3, P32790): 0
